From US20190248902A1 (published 2019)
Positions count from the first letter of the chain named.

B1: 48B12 (antibody, V domains shown)
VH: EVQLLESGGGLVQPGGSLRLSCAASGFTFSSYAMNWVRQAPGKGLEWVSAISGRGGNTFYADSVKGRFTISRDNSKNTLYLQMNSLRAEDTAVYYCAKRETYNWNYEGFDYWGQGTLVTVSS
VL: SYELTQPPSVSVSPGQTARITCSGDALPKKYAYWYQQKSGQAPVLVIYEDSKRPSGIPERFSGSSSGTMATLTISGAQVEDEADYYCNSTDSSGNHVVFGGGTKLTVL
B2: 176H4 (antibody, V domains shown)
VH: QVQLVESGGGVVQPGRSLRLSCAASGFTFSSYGMHWVRQAPGKGLEWVAIIWYDGSYKYYADSVKGRFTISRDNSKNTLYLQMSSLRAEDTAVYYCARDAHDFWSGYFAYWGQGALVTVSS
VL: DIVMTQTPLSLSVTPGQPASISCKSSQSLLHGDGKTYLYWYLQKPGQPPQLLIYEVSNRFSGVPDRFSGSGSGTDFTLKISRVEAEDVGIYYCMQSIQIPWTFGQGTRVEIK
B3: 184E7 (antibody, V domains shown)
VH: QVQLVQSGAEVKTPGASVKVSCRASGYTFTSYNMHWVRQVPGQGLEWMGWINPNNGGSNYTQKFQGRVTMTRDTSISTAYMELSRLRSDDTAVYYCARKFGDWGQGTLVTVSS
VL: DIQMTQSPSSRSASIGERVTITCRASQGISNYLAWIQQKPGTAPKSLIYAASSLQSGVSSRFSGSGFGTDFTITISSVQREDFATYYCQQYNGYPFTFGHGTKVDIK
B4: 54E9 (antibody, V domains shown)
VH: QVQLVQSGAEVKKPGASVKVSCKASGYTFNSYGISWVRLAPGQGLEWMGWISAYNGNTKNAQKLQGRVTMTTDTSTSTAYMELRSLRSDDTAVYYCARHDFWSGYYKGMDVWGQGTTVTVSS
VL: not shown
B5: 190F8 (antibody, V domains shown)
VH: QVQLVESGGGVVQPGRSLRLSCAASGFTFSTYGMHWVRQAPGKGLEWVAVIWYDGSNKNYADSVKGRFTISRDNSKNTLYLQMNSLRAEDTAVYYCARDQGVGYDGLDVWGQGTTVTVSS
VL: DIQMTQSPSSLSASVGDRVTITCRTSQGIGNYLAWFQQKPGKAPKSLLYKASSLQSGVPSKFSGSGSGTDFTLTISSLQPEDFATYYCQQYMTYPLTFGGGTKVEIK
B6: 191G1 (antibody, V domains shown)
VH: B5 VH with T31S, K58E, N59H, Q100R, D105Y
VL: B5 VL with T25A, G30S, L48I, K50A, Q90H, M92L
B7: 198G3 (antibody, V domains shown)
VH: B5 VH with R19K, S56T, Y80C
VL: B5 VL with T5A, N31K, S56G
B8: 191G10 (antibody, V domains shown)
VH: B5 VH with T31S
VL: B5 VL with N31K, A51V
B9: 56E5 (antibody, V domains shown)
VH: QVQLVQSGAEVKKPGASVKVSCQASGYTFTGYHMHWVRQAPGQGLEWMGWINPNNNATNYAQKFQGRVTMTRDTSISTAYMELRRLRSDDTAVYHCARDGTSSFDYWGQGTLVTVSS
VL: DIQMTQSPSSVSASVGDRVTITCRASQGIRKWLAWYQQKPGKAPKLLIYAASSLQSGVPSRFSGSGSGTDFTLTISSLQPEDFATYYCQQANSFPFTFGPGTKVDIK
B10: 72G9 (antibody, V domains shown)
VH: EVQLVESGGGLVKPGGSLRLSCAASGFTFSSYSMNWVRQAPGKGLEWVSSISGSSSYIYYADSVKGRFTISRDNAKNSLYLQMNSLRAEDTAVYFCARGGSRGFDPWGQGTLVTVSS
VL: B9 VL with V11L, G28S, R30T, K31S, W32Y, A34N, A50T, A91S, N92H
B11: 12D2 (antibody, V domains shown)
VH: EVQLVESGGGLVKPGGSLRLSCAASGFTFSSYSMNWVRQAPGKGLEWVSSISSSSSYIYYADSVKGRFTISRDNAKNSLYLQMNSLRAEDTAVYYCARLGDYWGQGTLVAVSS
VL: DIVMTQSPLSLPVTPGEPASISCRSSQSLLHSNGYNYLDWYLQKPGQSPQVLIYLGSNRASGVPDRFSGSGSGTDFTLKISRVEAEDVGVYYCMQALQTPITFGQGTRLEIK
B12: 194A4 (antibody, V domains shown)
VH: QVQLVQSGTEVKKPGASLKVSCKASGYTFTVYYLNWVRQAPGQGLEWMGWINPNSGGTNYAQKFQGRVTMTRDTSISTAYMELSRLRSDDTAVYYCARGYDILTGWGQGTLVTVSS
VL: EIVLTQSPGTLSLSPGERATLSCRASRGVSNIYLAWYQQKPGQAPRLLIYGASNRATGIPDRFSGSGSGTDFTLTISRLEPEDFAVYYCQHNDYSMFTFGPGTKVDIK
B13: 193E7 (antibody, V domains shown)
VH: QVQLQQWGAGLLKPSETLSLTCAVYGGSFSGYFWTWIRQPPGKGLEWIGEINHSGSTNYNPSLKSRVTISVDTSKNQFSLKLSSVTAADTAVYYCARDYGADYWGQGTLVAVSA
VL: DIQMTQSPSSLSASVGDRVTITCRASQGIRNDLGWYQQKPGKAPKRLIYSASSLQRGVPSRFSGSGSGTEFTLTISSLQPEDFATYYCLQHKRYPLTFGGGTKVEIK
B14: 25A4 (antibody, V domains shown)
VH: QVLLVQSGAEVKRPGASVKVSCKASGYTFTNYDINWVRQATGQGLEWMGWMYPNSGNTGYAQKFQGRVTMTRNTSISTAYMELSSLRSEDTAVYYCASSSGWYYFDYWGQGTLVTVSS
VL: DIVMTQFPDSLAVSLGERATIKCKSSQSVLYSSHNNNYLAWYQQKPGQPPKLLLYWASTRESGVPDRFSGSGSGTEFTLTISSLEAEDVAVYYCQQYYSTPPTFGQGTKVEIK
B15: 26C4 (antibody, V domains shown)
VH: B14 VH with L3Q, R13K, T41S, Y52N, K63R, S77N
VL: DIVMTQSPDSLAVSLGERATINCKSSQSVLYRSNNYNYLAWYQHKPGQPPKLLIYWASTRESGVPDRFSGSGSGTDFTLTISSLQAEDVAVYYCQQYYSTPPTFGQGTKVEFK
B16: 29H8 (antibody, V domains shown)
VH: B14 VH with L3Q, K12Q, R13K, Y52N, K63R, T78A
VL: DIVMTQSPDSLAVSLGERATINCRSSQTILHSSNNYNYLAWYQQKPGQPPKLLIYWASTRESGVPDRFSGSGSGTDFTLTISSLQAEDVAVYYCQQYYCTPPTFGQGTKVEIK
B17: 7E11 (antibody, V domains shown)
VH: QVQLVESGGGVVQPGRSLRLSCAASGFTFSSFGMHWVRQAPGKGLEWVAIIWHDGSNKYYADSVKGRFTISRDNSNNTLYLQMSSLRAEDTAVYYCARDLSMGGMDVWGQGTTVTVSS
VL: DIQMTQSPSSLSASVGDRVTIACRASQNIISYLNWYQQKPGKAPKFLIYTASSLQSGVPSRFSGSGSGTDFTLTISSLQPEDFAIYYCQQTYSTPLTFGGGTKVEIK
B18: 75G3 (antibody, V domains shown)
VH: QVQLQQWGAGLLKPSETLSLTCAVYGGSLSGSYWSWIRQPPGKGLEWIGEINLSGSTNYNPSLKSRVTISVDTSKSQFSLTLRSVTAADTAVYYCARDYGGLDYWGQGTLVTVSS
VL: EIVLTQSPGTLSLSPGERATLSCRARQNVDSSYLAWYQQKPGQAPRLLIYGASSRATGIPDRFSGSGSGTDFTLTISRLEPEDFAVFYCQQYERSPWTFGQGTKVEIK
B19: 22G5 (antibody, V domains shown)
VH: EVQLLESGGGLVQPGGSLRLSCAASGFTFSSYAMNWVRQAPGMGLEWVSVISRSGGYTYYADSVKGRFTISRDNSKNTLYLQMNSLRAEDTAVYYCASRLAVAGSEAFDIWGQGTLVTVSS
VL: DIQMTQSPSSLSASVGDRVTITCRASQNISSYLNWYQQKQGKAPKLLIYAASSLQNGVPSRFSGRGSGTDFTLTISSLQPEDFATYYCQQSYRTPLFTFGPGTKVDFK

Experiments:
human ASGR-1 [1] = target: T1, human ASGR-1 (human, UniProt P07306 1-291); experiment: FACS ligand blocking on CHO-S ASGR-1 cells; labelled ligand biotin-GalNAc-PAA (synthetic sugar)
T1 construct: Stably expressed on CHO-S cells (CHO-S:huASGR-1); The method text says human or mouse ASGR-1 cells were used; also called huASGR-1; hASGR-1
T1 sequence: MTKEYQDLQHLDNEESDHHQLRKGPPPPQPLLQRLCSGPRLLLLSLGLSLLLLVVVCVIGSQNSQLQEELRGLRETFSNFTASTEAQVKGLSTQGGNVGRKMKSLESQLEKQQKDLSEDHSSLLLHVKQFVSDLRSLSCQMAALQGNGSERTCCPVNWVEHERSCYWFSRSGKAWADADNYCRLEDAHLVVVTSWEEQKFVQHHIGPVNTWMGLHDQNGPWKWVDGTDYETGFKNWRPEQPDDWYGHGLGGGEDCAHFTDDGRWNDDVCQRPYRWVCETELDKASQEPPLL
Method: (§1) All ASGR-1 antibodies that bound either human or mouse ASGR-1 stable CHO—S cells were then tested for ligand blocking using both a protein ligand and a synthetic sugar ligand. The method in brief is as follows: first, 20 ul of either CHO-Shuman or mouse ASGR-1 cells were added to wells of a 384 well plate (30 k cells/well) followed by spin and discarding the supernatant. Second, 10 ul of the antibodies (either purified from hybridoma supernatants or made recombinantly) were added in duplicate to the cells in a dilution series (200 nM top concentration, 1:2 serial dilution, 11 point curve) and were incubated for 30 min at 4 C. […] After 30 min incubation at 4C, the plate was spun and washed twice with FACS buffer+1 mM CaCl2 followed by the detection streptavidin-AF647 at 1:1000 dilution. After 30 min at 4C, the cells were spun and washed once and then 60 ul PI added at 1:1000 dilution and the plates delivered to a core flow cytometry facility. The plates were read and processed similarly to the cell binding method except the signal now represents an inhibition curve and typically decreases a function of increasing antibody concentration. IC50 nM potency and % Inhibition were reported. […] Differences in the ability of antibodies to block these two ligands could occur as a result of differences in, for example, avidity stemming from differences in the number and/or orientation of the ASGR binding terminal sugar residues of each ligand, steric hindrance between antibody and each ligand, and/or changes in the conformation of ASGR induced by antibody binding that selectively alters the binding of each ligand.

human ASGR-1 [2] = target: T1, human ASGR-1; experiment: FACS ligand blocking on CHO-S ASGR-1 cells; competitor biotinylated asialofetuin
Method: as §1

Binder | % Inhibition (human ASGR-1 [1]) [%] | IC50 (human ASGR-1 [1]) [nM] | % Inhibition (human ASGR-1 [2]) [%] | IC50 (human ASGR-1 [2]) [nM]
B1 | 94 | 86 | 99 | 19
B2 | 79 |  | 99 | 
B3 | 99 | 10 | 99 | 23
B4 | 19 | 100 | 75 | 50
B5 | 83 | 44 | 98 | 34
B6 | 78 | 62 | 99 | 24
B7 | 81 | 5 | 99 | 26
B8 | 99 | 56 | 99 | 27
B9 | 99 | 45 | 99 | 23
B10 | 20 | 24 | 20 | 53
B11 | 10 | 2.1 | 20 | 10
B12 | 60 | 48 | 99 | 57
B13 | 60 | 33 | 99 | 30
B14 | 77 | 40 | 99 | 11
B15 | 83 | 36 | 99 | 6.6
B16 | 99 | 17 | 99 | 7
B17 | 37 | 40 | 99 | 13
B18 | 99 | 115 | 99 | 29
B19 | 93 |  | 99 | 
